Measurements as given in ChEMBL document CHEMBL3526122, “Identification of UDP-glucuronosyltransferases responsible for the glucuronidation of darexaban, an oral factor Xa inhibitor, in human liver and intestine” (Drug Metab Dispos, 2012).

What was measured:
Liver microsome = test: Drug level in human liver microsomes treated with darexaban at 30 uM after 10 mins by LC-MS/MS analysis in presence of UDPGA; assay type: ADME
[1] = Drug level in human intestinal microsomes treated with darexaban at 30 uM after 10 mins by LC-MS/MS analysis in presence of UDPGA; assay type: ADME, Intestine, Microsome
[2] = substrate: COc1ccc(C(=O)Nc2cccc(O)c2NC(=O)c2ccc(N3CCCN(C)CC3)cc2)cc1; test: Activity of human recombinant UGT1A10 expressed in baculovirus-infected insect cells assessed as enzyme-mediated glucuronidation after 10 mins in presence of UDPGA; assay type: ADME
[3] = substrate: COc1ccc(C(=O)Nc2cccc(O)c2NC(=O)c2ccc(N3CCCN(C)CC3)cc2)cc1; test: Activity of human recombinant UGT1A8 expressed in baculovirus-infected insect cells assessed as enzyme-mediated glucuronidation after 10 mins in presence of UDPGA; assay type: ADME
[4] = substrate: COc1ccc(C(=O)Nc2cccc(O)c2NC(=O)c2ccc(N3CCCN(C)CC3)cc2)cc1; test: Activity of human recombinant UGT1A9 expressed in baculovirus-infected insect cells assessed as enzyme-mediated glucuronidation after 5 mins by Michaelis-Menten plot analysis in presence of UDPGA and 0.5% fatty acid free BSA; assay type: ADME
[5] = substrate: COc1ccc(C(=O)Nc2cccc(O)c2NC(=O)c2ccc(N3CCCN(C)CC3)cc2)cc1; test: Activity of human recombinant UGT1A9 expressed in baculovirus-infected insect cells assessed as enzyme-mediated glucuronidation after 5 mins by Michaelis-Menten plot analysis in presence of UDPGA; assay type: ADME
[6] = substrate: COc1ccc(C(=O)Nc2cccc(O)c2NC(=O)c2ccc(N3CCCN(C)CC3)cc2)cc1; test: Activity of human recombinant UGT1A9 expressed in baculovirus-infected insect cells assessed as enzyme-mediated glucuronidation after 5 mins by Michaelis-Menten plot analysis in presence of UDPGA and absence of fatty acid free BSA; assay type: ADME
[7] = substrate: COc1ccc(C(=O)Nc2cccc(O)c2NC(=O)c2ccc(N3CCCN(C)CC3)cc2)cc1; test: Activity of human recombinant UGT1A9 expressed in baculovirus-infected insect cells assessed as enzyme-mediated glucuronidation after 5 mins by Michaelis-Menten plot analysis in presence of UDPGA and 0.1% fatty acid free BSA; assay type: ADME
[8] = substrate: COc1ccc(C(=O)Nc2cccc(O)c2NC(=O)c2ccc(N3CCCN(C)CC3)cc2)cc1; test: Activity of human recombinant UGT1A9 expressed in baculovirus-infected insect cells assessed as enzyme-mediated glucuronidation after 5 mins by Michaelis-Menten plot analysis in presence of UDPGA and 2% fatty acid free BSA; assay type: ADME
[9] = substrate: COc1ccc(C(=O)Nc2cccc(O)c2NC(=O)c2ccc(N3CCCN(C)CC3)cc2)cc1; test: Activity of human recombinant UGT1A7 expressed in baculovirus-infected insect cells assessed as enzyme-mediated glucuronidation after 10 mins by Michaelis-Menten plot analysis in presence of UDPGA; assay type: ADME

For `COc1ccc(C(=O)Nc2cccc(O[C@@H]3O[C@H](C(=O)O)[C@@H](O)[C@H](O)[C@H]3O)c2NC(=O)c2ccc(N3CCCN(C)CC3)cc2)cc1`, which Drug metabolism (Liver microsome) is on record?
The Drug metabolism was “metabolite_detected”.

What about the Drug metabolism [1] of the same molecule?
Its Drug metabolism is “metabolite_detected”.

B1: UDP-glucuronosyltransferase 1A10 (Homo sapiens) (protein)
chain: MARAGWTSPVPLCVCLLLTCGFAEAGKLLVVPMDGSHWFTMQSVVEKLILRGHEVVVVMPEVSWQLERSLNCTVKTYSTSYTLEDQNREFMVFAHAQWKAQAQSIFSLLMSSSSGFLDLFFSHCRSLFNDRKLVEYLKESSFDAVFLDPFDTCGLIVAKYFSLPSVVFTRGIFCHHLEEGAQCPAPLSYVPNDLLGFSDAMTFKERVWNHIVHLEDHLFCQYLFRNALEIASEILQTPVTAYDLYSHTSIWLLRTDFVLDYPKPVMPNMIFIGGINCHQGKPLPMEFEAYINASGEHGIVVFSLGSMVSEIPEKKAMAIADALGKIPQTVLWRYTGTRPSNLANNTILVKWLPQNDLLGHPMTRAFITHAGSHGVYESICNGVPMVMMPLFGDQMDNAKRMETKGAGVTLNVLEMTSEDLENALKAVINDKSYKENIMRLSSLHKDRPVEPLDLAVFWVEFVMRHKGAPHLRPAAHDLTWYQYHSLDVIGFLLAVVLTVAFITFKCCAYGYRKCLGKKGRVKKAHKSKTH
Which results are given for B1?
Km [2]: 34.2 µM; Vmax [2]: 0.00136 µmol/min

B2: UDP-glucuronosyltransferase 1A8 (Homo sapiens) (protein)
chain: MARTGWTSPIPLCVSLLLTCGFAEAGKLLVVPMDGSHWFTMQSVVEKLILRGHEVVVVMPEVSWQLGKSLNCTVKTYSTSYTLEDLDREFMDFADAQWKAQVRSLFSLFLSSSNGFFNLFFSHCRSLFNDRKLVEYLKESSFDAVFLDPFDACGLIVAKYFSLPSVVFARGIACHYLEEGAQCPAPLSYVPRILLGFSDAMTFKERVRNHIMHLEEHLFCQYFSKNALEIASEILQTPVTAYDLYSHTSIWLLRTDFVLDYPKPVMPNMIFIGGINCHQGKPLPMEFEAYINASGEHGIVVFSLGSMVSEIPEKKAMAIADALGKIPQTVLWRYTGTRPSNLANNTILVKWLPQNDLLGHPMTRAFITHAGSHGVYESICNGVPMVMMPLFGDQMDNAKRMETKGAGVTLNVLEMTSEDLENALKAVINDKSYKENIMRLSSLHKDRPVEPLDLAVFWVEFVMRHKGAPHLRPAAHDLTWYQYHSLDVIGFLLAVVLTVAFITFKCCAYGYRKCLGKKGRVKKAHKSKTH
For B2, which Km [3] is on record?
The Km was 11.8 µM.

What about the Vmax [3] of the same molecule?
The Vmax was 0.000608 µmol/min.

B3: UDP-glucuronosyltransferase 1A9 (Homo sapiens) (protein)
chain: MACTGWTSPLPLCVCLLLTCGFAEAGKLLVVPMDGSHWFTMRSVVEKLILRGHEVVVVMPEVSWQLGRSLNCTVKTYSTSYTLEDLDREFKAFAHAQWKAQVRSIYSLLMGSYNDIFDLFFSNCRSLFKDKKLVEYLKESSFDAVFLDPFDNCGLIVAKYFSLPSVVFARGILCHYLEEGAQCPAPLSYVPRILLGFSDAMTFKERVRNHIMHLEEHLLCHRFFKNALEIASEILQTPVTEYDLYSHTSIWLLRTDFVLDYPKPVMPNMIFIGGINCHQGKPLPMEFEAYINASGEHGIVVFSLGSMVSEIPEKKAMAIADALGKIPQTVLWRYTGTRPSNLANNTILVKWLPQNDLLGHPMTRAFITHAGSHGVYESICNGVPMVMMPLFGDQMDNAKRMETKGAGVTLNVLEMTSEDLENALKAVINDKSYKENIMRLSSLHKDRPVEPLDLAVFWVEFVMRHKGAPHLRPAAHDLTWYQYHSLDVIGFLLAVVLTVAFITFKCCAYGYRKCLGKKGRVKKAHKSKTH
For B3, which Km [4] is on record?
Its Km is 22.7 µM.

And the Km [5]?
The Km was 58.2 µM.

What about the Km [6] of the same molecule?
Its Km is 35.5 µM.

And the Km [7]?
Its Km is 22.4 µM.

And the Km [8]?
The Km was 18.3 µM.

B4: UDP-glucuronosyltransferase 1A7 (Homo sapiens) (protein)
chain: MARAGWTGLLPLYVCLLLTCGFAKAGKLLVVPMDGSHWFTMQSVVEKLILRGHEVVVVMPEVSWQLGRSLNCTVKTYSTSYTLEDQDREFMVFADARWTAPLRSAFSLLTSSSNGIFDLFFSNCRSLFNDRKLVEYLKESCFDAVFLDPFDACGLIVAKYFSLPSVVFARGIFCHYLEEGAQCPAPLSYVPRLLLGFSDAMTFKERVWNHIMHLEEHLFCPYFFKNVLEIASEILQTPVTAYDLYSHTSIWLLRTDFVLEYPKPVMPNMIFIGGINCHQGKPVPMEFEAYINASGEHGIVVFSLGSMVSEIPEKKAMAIADALGKIPQTVLWRYTGTRPSNLANNTILVKWLPQNDLLGHPMTRAFITHAGSHGVYESICNGVPMVMMPLFGDQMDNAKRMETKGAGVTLNVLEMTSEDLENALKAVINDKSYKENIMRLSSLHKDRPVEPLDLAVFWVEFVMRHKGAPHLRPAAHDLTWYQYHSLDVIGFLLAVVLTVAFITFKCCAYGYRKCLGKKGRVKKAHKSKTH
What does the source list for B4?
Km [9]: 59.1 µM; Vmax [9]: 0.000725 µmol/min
